Data taken from patent publication US20250002610A1 (Genmab, published 2025).

What was measured:
[1] = target: T1, human DR4 (Death Receptor 4), cell surface expressed on human tumor cell lines (human, UniProt O00220 24-468); assay: flow cytometry, DLD-1 cells, n = 2
T1 construct: also called TNFRSF10A; TRAIL-R1
T1 sequence: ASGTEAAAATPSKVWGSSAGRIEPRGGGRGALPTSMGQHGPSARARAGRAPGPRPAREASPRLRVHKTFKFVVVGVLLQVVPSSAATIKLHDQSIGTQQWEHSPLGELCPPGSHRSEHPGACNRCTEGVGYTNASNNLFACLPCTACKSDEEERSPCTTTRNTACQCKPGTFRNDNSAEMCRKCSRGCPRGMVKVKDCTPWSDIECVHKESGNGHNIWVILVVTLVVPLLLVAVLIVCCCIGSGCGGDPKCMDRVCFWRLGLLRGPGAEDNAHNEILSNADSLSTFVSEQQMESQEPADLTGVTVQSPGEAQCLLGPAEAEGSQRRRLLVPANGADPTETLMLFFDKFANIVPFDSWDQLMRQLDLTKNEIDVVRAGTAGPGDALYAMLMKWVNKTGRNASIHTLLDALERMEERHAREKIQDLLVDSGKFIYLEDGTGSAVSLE

[2] = target: T1, human DR4 (Death Receptor 4), cell …; assay: flow cytometry, PANC-1 cells, n = 3
[3] = target: T1, human DR4 (Death Receptor 4), cell …; assay: flow cytometry, MDA-MB-231 cells, average ± SEM
[4] = target: T1, human DR4 (Death Receptor 4), cell …; assay: flow cytometry, MDA-MB-231 cells, n = 1
[5] = target: T2, human FAPα (Fibroblast activation protein alpha), cell surface expressed (human, UniProt Q12884 1-760); assay: flow cytometry, human lung fibroblasts, average ± SEM
T2 construct: Endogenous on human lung fibroblasts and CAFs
T2 sequence: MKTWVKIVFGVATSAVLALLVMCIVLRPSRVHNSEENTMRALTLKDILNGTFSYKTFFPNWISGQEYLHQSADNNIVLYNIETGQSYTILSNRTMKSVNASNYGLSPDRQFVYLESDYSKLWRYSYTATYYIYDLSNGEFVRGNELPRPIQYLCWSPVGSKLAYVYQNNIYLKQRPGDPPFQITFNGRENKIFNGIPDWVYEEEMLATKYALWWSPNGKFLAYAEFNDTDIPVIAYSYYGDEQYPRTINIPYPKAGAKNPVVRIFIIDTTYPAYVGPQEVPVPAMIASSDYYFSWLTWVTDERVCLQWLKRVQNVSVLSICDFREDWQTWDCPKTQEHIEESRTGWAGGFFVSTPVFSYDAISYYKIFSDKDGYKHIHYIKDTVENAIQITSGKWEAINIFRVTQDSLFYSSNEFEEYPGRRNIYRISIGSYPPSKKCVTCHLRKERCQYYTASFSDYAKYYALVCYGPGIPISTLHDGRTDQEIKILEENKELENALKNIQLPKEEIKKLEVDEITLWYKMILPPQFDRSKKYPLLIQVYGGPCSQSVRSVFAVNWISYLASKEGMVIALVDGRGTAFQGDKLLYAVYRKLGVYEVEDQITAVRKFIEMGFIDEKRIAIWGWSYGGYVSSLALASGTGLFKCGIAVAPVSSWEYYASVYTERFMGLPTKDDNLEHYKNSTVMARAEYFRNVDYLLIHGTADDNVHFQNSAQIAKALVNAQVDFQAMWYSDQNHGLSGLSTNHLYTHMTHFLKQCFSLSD
Method: Binding of bispecific or monoclonal antibodies carrying the anti-FAPα arm derived from IgG1-FAPα-FERL (BisG1-FAPα-FERL/DR4-FERR, BisG1-FAPα-FERL/b12-FERR, and IgG1-FAPα-FERL) to cell surface expressed human FAPα was analyzed by flow cytometry using human lung fibroblasts and CAFs, which endogenously express FAPα. BisG1-b12-FERL/b12-FERR was used as negative control.
Human lung fibroblasts and CAFs (50,000 cells/well) were seeded in 96-Well round bottom plates (Greiner Bio-one, Cat #650101). Antibody dilutions were prepared using fluorescence-activated cell sorting (FACS) buffer, consisting of phosphate buffer saline (PBS, Lonza, Cat #BE17-517Q)+1% Bovine Serum Albumin (BSA, Roche, Cat #10735086001)+0.02% Sodium Azide (Bio-World, Cat #41920044-3). Plates were centrifuged, supernatant was removed, cells were resuspended in 50 μL of human Fc Block (BD, Cat #564220, diluted 1:100 in FACS buffer) and 50 μL of viability stain TO-PRO-3 Iodide (Thermo Fisher, Cat #T3605, diluted 1: 25,000 in FACS buffer), and incubated for 15 min at 4° C. Plates were washed three times with FACS buffer. Plates were centrifuged, supernatant was removed, cells were resuspended in 50 μL of antibody dilutions (concentration range 90-0.0005 μg/mL, three-fold dilution steps using FACS buffer) of BisG1-FAPα-FERL/DR4-FERR, BisG1-FAPα-FERL/b12-FERR, BisG1-b12-FERL/b12-FERR (top six concentrations only for CAFs culture) or IgG1-FAPα-FERL (top four concentrations only for CAFs culture) and incubated for 30 min at 4° C. Cells were washed three times with FACS buffer and resuspended in 50 μL of Fluorescein isothiocyanate (FITC)-labeled polyclonal antibody goat anti-mouse IgG1 (Jackson Immuno Research, Cat #109-096-097, diluted 1:100 in FACS buffer). […] Antibody binding to viable cells (TO-PRO-3 negative) was analyzed by flow cytometry on a FACSCelesta™ (BD biosciences) and data were processed using FlowJo_v10.8.1 (FlowJo LLC). Geomean fluorescence intensity, gMFI, was determined and visualized using GraphPad Prism.

[6] = target: T1, human DR4 (Death Receptor 4), cell …; assay: flow cytometry, HCT-15 cells, n = 3

B1: BisG1-FAPα-FERL/DR4-FERR (bispecific antibody, human IgG1, kappa, lambda)
heavy 1: EVQLLESGGGLVQPGGSPRLSCEASGFTFSSYALSWVRQAPGKGLEWVSAISGSGGGRYYADSVKGRFTISRDNSKNTLFLQMNSLRAEDTAVYYCAKEGYSSSGTYWDHWGQGTLVTVSSASTKGPSVFPLAPSSKSTSGGTAALGCLVKDYFPEPVTVSWNSGALTSGVHTFPAVLQSSGLYSLSSVVTVPSSSLGTQTYICNVNHKPSNTKVDKRVEPKSCDKTHTCPPCPAPEFERGPSVFLFPPKPKDTLMISRTPEVTCVVVDVSHEDPEVKFNWYVDGVEVHNAKTKPREEQYNSTYRVVSVLTVLHQDWLNGKEYKCKVSNKALPAPIEKTISKAKGQPREPQVYTLPPSREEMTKNQVSLTCLVKGFYPSDIAVEWESNGQPENNYKTTPPVLDSDGSFLLYSKLTVDKSRWQQGNVFSCSVMHEALHNHYTQKSLSLSPG
light 1: AIQMTQSPSSVSASVGDRVTITCRASQGVSSWLAWYQQKPGRAPKLLIYVASTLQSGVPSRFSGSGSGTDFTLTINSLQPEDFATYYCQQANSFPPTFGQGTRLEMKRTVAAPSVFIFPPSDEQLKSGTASVVCLLNNFYPREAKVQWKVDNALQSGNSQESVTEQDSKDSTYSLSSTLTLSKADYEKHKVYACEVTHQGLSSPVTKSFNRGEC
heavy 2: QVQLQESGPGLVKPSGTLSLTCAVSGGSISSYSWWSWIRQPPGKGLEWIGELYHSGSTNYNPSLKSRVTISVDKSKNQFSLKLRSVTAADTAVYYCVRGVATIDYWGQGTLVTVSSASTKGPSVFPLAPSSKSTSGGTAALGCLVKDYFPEPVTVSWNSGALTSGVHTFPAVLQSSGLYSLSSVVTVPSSSLGTQTYICNVNHKPSNTKVDKRVEPKSCDKTHTCPPCPAPEFERGPSVFLFPPKPKDTLMISRTPEVTCVVVDVSHEDPEVKFNWYVDGVEVHNAKTKPREEQYNSTYRVVSVLTVLHQDWLNGKEYKCKVSNKALPAPIEKTISKAKGQPREPQVYTLPPSREEMTKNQVSLTCLVKGFYPSDIAVEWESNGQPENNYKTTPPVLDSDGSFFLYSRLTVDKSRWQQGNVFSCSVMHEALHNHYTQKSLSLSPG
light 2: QSALTQPPSASGSPGQSVTISCTGTSSDVGGYNFVSWYQQDPGKAPKLLIYEVTKRPSGVPDRFSGSKSGNTASLTVSGLQAEDEADYYCSSYAGSNNVMFGGGTKLTVLGQPKAAPSVTLFPPSSEELQANKATLVCLISDFYPGAVTVAWKADSSPVKAGVETTTPSKQSNNKYAASSYLSLTPEQWKSHRSYSCQVTHEGSTVEKTVAPTECS
notes: Human IgG1 bispecific made by controlled Fab-arm exchange of IgG1-FAPα-FERL and IgG1-DR4-FERR; monovalent for FAPα and for DR4; also called GEN1057
Work on B1 yielded an EC50 [1] of 0.73 µg/mL, an EC50 [2] of 1.4 µg/mL and an EC50 [3] of 1.18 µg/mL. It also gave an EC50 [4] of 1.12 µg/mL, an EC50 [5] of 0.051 µg/mL and an EC50 [6] of 0.68 µg/mL.
